Reference: patent US7572594B2, “Screening assays for agonists or antagonists or receptor activator of NF-κB” (Immunex Corporation, priority 2000, dated 2009)

B1: RANK Δ340-421: human RANK (SEQ ID NO:2) with the TRAF6 binding site (amino acids 340-421) deleted (protein, listed as Homo sapiens)
chain: MAPRARRRRPLFALLLLCALLARLQVALQIAPPCTSEKHYEHLGRCCNKCEPGKYMSSKCTTTSDSVCLPCGPDEYLDSWNEEDKCLLHKVCDTGKALVAVVAGNSTTPRRCACTAGYHWSQDCECCRRNTECAPGLGAQHPLQLNKDTVCKPCLAGYFSDAFSSTDKCRPWTNCTFLGKRVEHHGTEKSDAVCSSSLPARKPPNEPHVYLPGLIILLLFASVALVAAIIFGVCYRKKGKALTANLWHWINEACGRLSGDKESSGDSCVSTHTANFGQQGACEGVLLLTLEEKTFPEDMCYPDQGGVCQGTCVGGGPYAQGEDARMLSLVSKTEIEEDSLQKEVDSGHCPHWAASPSPNWADVCTGCRNPPGEDCEPLVGSPKRGPLPQCAYGMGLPPEEEASRTEARDQPEDGADGRLPSSARAGAGSGSSPGGQSPASGNVTGNSNSTFISSGQVMNFKGDIIVVYVSQTSQEGAAAAAEPMGRPVQEETLARRDSFAGNGPRFPDPCGGPEGLREPEKASRPVQEQGGAKA
B2: RANK (SEQ ID NO:2) and RANK-L (SEQ ID NO:6): co-transfection of expression vectors encoding full-length human RANK and human full-length RANK-L (protein, listed as Homo sapiens)
chain 1: MAPRARRRRPLFALLLLCALLARLQVALQIAPPCTSEKHYEHLGRCCNKCEPGKYMSSKCTTTSDSVCLPCGPDEYLDSWNEEDKCLLHKVCDTGKALVAVVAGNSTTPRRCACTAGYHWSQDCECCRRNTECAPGLGAQHPLQLNKDTVCKPCLAGYFSDAFSSTDKCRPWTNCTFLGKRVEHHGTEKSDAVCSSSLPARKPPNEPHVYLPGLIILLLFASVALVAAIIFGVCYRKKGKALTANLWHWINEACGRLSGDKESSGDSCVSTHTANFGQQGACEGVLLLTLEEKTFPEDMCYPDQGGVCQGTCVGGGPYAQGEDARMLSLVSKTEIEEDSFRQMPTEDEYMDRPSQPTDQLLFLTEPGSKSTPPFSEPLEVGENDSLSQCFTGTQSTVGSESCNCTEPLCRTDWTPMSSENYLQKEVDSGHCPHWAASPSPNWADVCTGCRNPPGEDCEPLVGSPKRGPLPQCAYGMGLPPEEEASRTEARDQPEDGADGRLPSSARAGAGSGSSPGGQSPASGNVTGNSNSTFISSGQVMNFKGDIIVVYVSQTSQEGAAAAAEPMGRPVQEETLARRDSFAGNGPRFPDPCGGPEGLREPEKASRPVQEQGGAKA
chain 2: MRRASRDYTKYLRGSEEMGGGPGAPHEGPLHAPPPPAPHQPPAASRSMFVALLGLGLGQVVCSVALFFYFRAQMDPNRISEDGTHCIYRILRLHENADFQDTTLESQDTKLIPDSCRRIKQAFQGAVQKELQHIVGSQHIRAEKAMVDGSWLDLAKRSKLEAQPFAHLTINATDIPSGSHKVSLSSWYHDRGWAKISNMTFSNGKLIVNQDGFYYLYANICFRHHETSGDLATEYLQLMVYVTKTSIKIPSSHTLMKGGSTKYWSGNSEFHFYSINVGGFFKLRSGEEISIEVSNPSLLDPDQDATYFGAFKVRDID

What was measured:
c-src tyrosine kinase = assay: c-src immune complex kinase assay in RANK −/− osteoclast precursors infected with RANK retrovirus; type: cell-based, mouse; details: cells differentiated after retroviral infection; background = uninfected RANK −/− cells
Method: Experiments were conducted in which DNA encoding wild-type or human RANK/TRAF6 binding mutant (RANK Δ340-421) was introduced into hematopoietic cells isolated from RANK −/− mice. Full-length and mutant human RANK DNAs were subcloned into the pBMNZ retroviral vector as previously described (Kinsella and Nolan, 1996, Human Gene Therapy 7:1405-1413). Infectious RANK-containing retrovirus was produced in 293-E Phoenix packaging cells as described (Kinsella and Nolan, 1996). Supernatants from these cells were used as a source of infectious virus particles.
The generation of the RANK −/− mice used in these assays has been described previously (Dougall et al., 1999). Spleen cells were isolated from 3-6 week old RANK−/− mice and enriched for osteoclast precursors by depleting the initial cell population of various types of cells other than osteoclast precursors. For this “depletion” step, the cells were incubated with biotinylated antibodies against CD3 (specific for T cells), Ter-119 (specific for erythrocytes), and GR-1 (specific for granulocytes). After the antibodies had bound to their respective target cells, streptavidin-conjugated magnetic beads were added to the culture, and the mixture of cells was passed over magnetic columns (MACS depletion columns; MILLTENNYI). […]
To induce c-src and F-actin rings, recombinant mRANK-L/leucine zipper protein was added to the cultures at a concentration of 1 μg/ml for various times after which the cells were lysed in a buffer containing 50 mM HEPES (pH 7.2), 10% glycerol, 250 mM NaCl and 1% Triton X-100. […] C-src activity in the immune complex was monitored using a commercially available assay kit (Upstate Biotechnology, Lake Placid, N.Y.). […] The phosphorylated substrate peptide was then separated from the residual labeled ATP using phosphocellulose paper and labeled peptide was quantified using a scintillation counter. […]

[1] = system: spleen cells from RANK −/− mice; assay: CaPO4 resorption (pit formation) assay; type: cell-based, mouse; details: 5 days in 40 ng/ml CSF-1 and 200 ng/ml mRANK-L on CaPO4 film
Source text: The resorption of CaPO4, upon which this assay is based, is considered to be a measure of osteoclast activity. Spleen cells were isolated from 3-6 week old RANK −/− mice and treated as described in Example 9 to remove cells expressing the CD3, Ter-119, and GR-1 antigens. Cells not expressing any of these antigens were harvested and infected as described in Example 9 with retroviral vector particles containing full-length or TRAF6 binding site deletion mutants of RANK.
Following infection, the spleen cells were harvested and plated in MEM containing 10% fetal bovine serum containing 40 ng/ml CSF-1 and 200 ng/ml mRANK-L onto 16 well quartz slides coated with a thin film of CaPO4 (Osteologic, BD Biosystems). After 5 days in culture, the slides were washed, the cells removed by washing with bleach, and the slides washed again with buffer. […] The number of pits in the CaPO4 film is a measure of the extent to which the RANK-L induced the cells grown on that slide to differentiate into osteoclasts.
If desired, the CaPO4 film can be stained using a 0.5% solution of alizarin red for 4 to 5 minutes followed by washing in water. After staining, the resorptive lacunae are visualized by phase contrast microscopy as a clear area on a red background.

[2] = system: primary hematopoietic cells from the RANK −/− mice; assay: F-actin ring formation, phalloidin staining; type: cell-based, mouse; details: 5 days in 40 ng/ml CSF-1 and 200 ng/ml mRANK-L
Source text: To detect F-actin rings, cells are fixed, such as by exposure to 3% paraformaldehyde, and visualized by staining cells with a fluorescent probe that binds specifically with actin. A suitable fluorescent tag is phalloidin, which can be obtained from Molecular Probes, Eugene, Oreg. The fluorescent signal is detected, for example, using a standard fluorescent microscope, and the number of cells having F-actin rings is visually quantified. An F-actin ring is identified as a continuous ring of F-actin at the periphery of a cell, and these distinct structures are visible through a microscope.
A procedure to detect F-actin rings was carried out as follows. Primary hematopoietic cells from the RANK −/− mice were infected with retroviral constructs encoding either the full-length human RANK cDNA or the RANK/TRAF6 binding mutant (RANK Δ340-421). Cells were cultured on LabTek Chamber slides with #1 borosilicate coverglasses (Nalge/Nunc). After incubation for 5 days in MEM containing 10% fetal bovine serum containing 40 ng/ml CSF-1 and 200 ng/ml mRANK-L. The media was aspirated, washed twice in PBS and then fixed in a solution of 3% paraformaldehyde for 10 minutes, followed by quenching in 50 mM NH4Cl. […] The fluorescent signal was detected using a standard fluorescent microscope, and F-actin rings were identified as continuous rings of F-actin at the periphery of individual cells.

human TRAP promoter = assay: human TRAP promoter/luciferase reporter in 293/EBNA cells; type: cell-based; details: 40 ng reporter
Source text: (§1) This example describes the activation of the TRAP promoter. A 2.6 kb DNA fragment containing the human TRAP promoter was obtained by digesting the plasmid pBL2HT2.2 with the restriction endonuclease ApaI. The cloning of the human TRAP gene 5′ region and the construction of pBL2HT2.2 are fully described in Reddy et al. (Bone 16:587-593 (1995)). A DNA containing the mouse TRAP promoter (SEQ ID NO:12) and a DNA containing the murine MMP-9 promoter (SEQ ID NO:11) also were used for these experiments. DNAs containing the promoters were fused to the luciferase reporter gene. These promoter/reporter constructs were transfected into human 293/EBNA cells along with various combinations of expression vectors that encoded full-length human RANK (SEQ ID NO:2) and human full-length RANK-L proteins (SEQ ID NO:6).
For the human TRAP promoter, the 1.9 kb […] fragment containing the promoter activity isolated from the region upstream of the human TRAP gene (Reddy et al., 1995) was fused to a luciferase reporter and transfected (40 ng) into 293/EBNA cells. The combination of human RANK (SEQ ID NO:2) and human RANK-L (SEQ ID NO:6) increased reporter expression approximately 1.5 fold.

[3] = system: mouse TRAP promoter (SEQ ID NO:12); assay: mouse TRAP promoter/luciferase reporter in 293/EBNA cells; type: cell-based; details: 24 hours after transfection, 0.4 ng RANK vector, 20 ng RANK-L vector
Source text: as §1
For the mouse TRAP promoter (SEQ ID NO:12), 2×10^5 293/EBNA cells were transfected using DEAE/dextran with 40 ng of a plasmid encoding approximately 2 kb of the mouse TRAP promoter (SEQ ID NO:12) fused to a luciferase reporter, 20 ng of an expression vector encoding RANK-L (SEQ ID NO:6), and 0.4 ng of an expression vector encoding RANK (SEQ ID NO:2). Twenty four hours after transfection, luciferase activity in cell lysates was measured according to manufacturer's instructions (Promega) using a EG&G/Berthold luminometer. […]

Molecule	c-src activity (c-src tyrosine kinase)	CaPO4 resorption [1]	cells with F-actin rings [2]	increase of reporter expression (luciferase) (human TRAP promoter)	increase of reporter expression (luciferase) [3]
B1	not discernibly different from background levels	insignificant levels of CaPO4 resorption	no F-actin rings were discerned	–	–
B2	–	–	–	approximately 1.5 fold	approximately 4 fold
